In PMC5445078, “Probing the Roles of Calcium-Binding Sites during the Folding of Human Peptidylarginine Deiminase 4” (Scientific Reports, 2017):

Target: the molecule itself
Experiment: AUC; sedimentation velocity, 20 °C, 42,000 rpm, absorbance at 280 nm, SEDFIT continuous size distribution; no urea, 10 mM Ca2+, 50 mM Tris-HCl pH 7.4; dimer to monomers

| Molecule | stoichiometry N |
| --- | --- |
| human PAD4 Ca2_site mutant (E351A/D369A/N373A) (enzyme, UniProt Q9UM07 1-663, looked up, source: E. coli JM109, purified (Ni-NTA)) MAQGTLIRVTPEQPTHAVCVLGTLTQLDICSSAPEDCTSFSINASPGVVVDIAHGPPAKKKSTGSSTWPLDPGVEVTLTMKVASGSTGDQKVQISYYGPKTPPVKALLYLTGVEISLCADITRTGKVKPTRAVKDQRTWTWGPCGQGAILLVNCDRDNLESSAMDCEDDEVLDSEDLQDMSLMTLSTKTPKDFFTNHTLVLHVARSEMDKVRVFQATRGKLSSKCSVVLGPKWPSHYLMVPGGKHNMDFYVEALAFPDTDFPGLITLTISLLDTSNLELPEAVVFQDSVVFRVAPWIMTPNTQPPQEVYACSIFENEDFLKSVTTLAMKAKCKLTICPEEENMDDQWMQDAMEIGYIQAPHKTLPVVFASPRARGLKEFPIKRVMGPDFGYVTRGPQTGGISGLDSFGNLEVSPPVTVRGKEYPLGRILFGDSCYPSNDSRQMHQALQDFLSAQQVQAPVKLYSDWLSVGHVDEFLSFVPAPDRKGFRLLLASPRSCYKLFQEQQNEGHGEALLFEGIKKKKQQKIKNILSNKTLREHNSFVERCIDWNRELLKRELGLAESDIIDIPQLFKLKEFSKAEAFFPNMVNMLVLGKHLGIPKPFGPVINGRCCLEEKVCSLLEPLGLQCTFINDFFTYHIRHGEVHCGTNVRRKPFSFKWWNMVP | 2 |
| human PAD4 Ca4_site mutant (D155A/D157A/D179A/D388A) (enzyme, UniProt Q9UM07 1-663, looked up, source: E. coli JM109, purified (Ni-NTA)) MAQGTLIRVTPEQPTHAVCVLGTLTQLDICSSAPEDCTSFSINASPGVVVDIAHGPPAKKKSTGSSTWPLDPGVEVTLTMKVASGSTGDQKVQISYYGPKTPPVKALLYLTGVEISLCADITRTGKVKPTRAVKDQRTWTWGPCGQGAILLVNCARANLESSAMDCEDDEVLDSEDLQAMSLMTLSTKTPKDFFTNHTLVLHVARSEMDKVRVFQATRGKLSSKCSVVLGPKWPSHYLMVPGGKHNMDFYVEALAFPDTDFPGLITLTISLLDTSNLELPEAVVFQDSVVFRVAPWIMTPNTQPPQEVYACSIFENEDFLKSVTTLAMKAKCKLTICPEEENMDDQWMQDEMEIGYIQAPHKTLPVVFDSPRNRGLKEFPIKRVMGPAFGYVTRGPQTGGISGLDSFGNLEVSPPVTVRGKEYPLGRILFGDSCYPSNDSRQMHQALQDFLSAQQVQAPVKLYSDWLSVGHVDEFLSFVPAPDRKGFRLLLASPRSCYKLFQEQQNEGHGEALLFEGIKKKKQQKIKNILSNKTLREHNSFVERCIDWNRELLKRELGLAESDIIDIPQLFKLKEFSKAEAFFPNMVNMLVLGKHLGIPKPFGPVINGRCCLEEKVCSLLEPLGLQCTFINDFFTYHIRHGEVHCGTNVRRKPFSFKWWNMVP | 2 |
| human PAD4 Ca1_site mutant (Q349A/E353A/E411A) (enzyme, UniProt Q9UM07 1-663, looked up, source: E. coli JM109, purified (Ni-NTA)) MAQGTLIRVTPEQPTHAVCVLGTLTQLDICSSAPEDCTSFSINASPGVVVDIAHGPPAKKKSTGSSTWPLDPGVEVTLTMKVASGSTGDQKVQISYYGPKTPPVKALLYLTGVEISLCADITRTGKVKPTRAVKDQRTWTWGPCGQGAILLVNCDRDNLESSAMDCEDDEVLDSEDLQDMSLMTLSTKTPKDFFTNHTLVLHVARSEMDKVRVFQATRGKLSSKCSVVLGPKWPSHYLMVPGGKHNMDFYVEALAFPDTDFPGLITLTISLLDTSNLELPEAVVFQDSVVFRVAPWIMTPNTQPPQEVYACSIFENEDFLKSVTTLAMKAKCKLTICPEEENMDDQWMADEMAIGYIQAPHKTLPVVFDSPRNRGLKEFPIKRVMGPDFGYVTRGPQTGGISGLDSFGNLAVSPPVTVRGKEYPLGRILFGDSCYPSNDSRQMHQALQDFLSAQQVQAPVKLYSDWLSVGHVDEFLSFVPAPDRKGFRLLLASPRSCYKLFQEQQNEGHGEALLFEGIKKKKQQKIKNILSNKTLREHNSFVERCIDWNRELLKRELGLAESDIIDIPQLFKLKEFSKAEAFFPNMVNMLVLGKHLGIPKPFGPVINGRCCLEEKVCSLLEPLGLQCTFINDFFTYHIRHGEVHCGTNVRRKPFSFKWWNMVP | 2 |
| human PAD4 Ca3_site mutant (N153A/D155A/D157A/D165A/D176A/D179A) (enzyme, UniProt Q9UM07 1-663, looked up, source: E. coli JM109, purified (Ni-NTA)) MAQGTLIRVTPEQPTHAVCVLGTLTQLDICSSAPEDCTSFSINASPGVVVDIAHGPPAKKKSTGSSTWPLDPGVEVTLTMKVASGSTGDQKVQISYYGPKTPPVKALLYLTGVEISLCADITRTGKVKPTRAVKDQRTWTWGPCGQGAILLVACARANLESSAMACEDDEVLDSEALQAMSLMTLSTKTPKDFFTNHTLVLHVARSEMDKVRVFQATRGKLSSKCSVVLGPKWPSHYLMVPGGKHNMDFYVEALAFPDTDFPGLITLTISLLDTSNLELPEAVVFQDSVVFRVAPWIMTPNTQPPQEVYACSIFENEDFLKSVTTLAMKAKCKLTICPEEENMDDQWMQDEMEIGYIQAPHKTLPVVFDSPRNRGLKEFPIKRVMGPDFGYVTRGPQTGGISGLDSFGNLEVSPPVTVRGKEYPLGRILFGDSCYPSNDSRQMHQALQDFLSAQQVQAPVKLYSDWLSVGHVDEFLSFVPAPDRKGFRLLLASPRSCYKLFQEQQNEGHGEALLFEGIKKKKQQKIKNILSNKTLREHNSFVERCIDWNRELLKRELGLAESDIIDIPQLFKLKEFSKAEAFFPNMVNMLVLGKHLGIPKPFGPVINGRCCLEEKVCSLLEPLGLQCTFINDFFTYHIRHGEVHCGTNVRRKPFSFKWWNMVP | 2 |

Target: human PAD4 Ca5_site mutant (D168A/E252A) (human) (UniProt Q9UM07)
Experiment: as above

| stoichiometry N | Molecule |
| --- | --- |
| 2 | human PAD4 Ca5_site mutant (D168A/E252A) (from UniProt Q9UM07 1-663) (enzyme) |

Target: the molecule itself
Experiment: AUC; sedimentation velocity at three protein concentrations (0.1, 0.3 and 0.9 mg/ml), globally fit with SEDPHAT; dimer to monomers

| Molecule | Kd [nM] |
| --- | --- |
| PAD4 Ca1_site mutant (Q349A/E353A/E411A) (enzyme, human, UniProt Q9UM07 1-663, looked up, human peptidylarginine deiminase 4 (PAD4), cDNA cloned into pQE30; source: E. coli JM109, purified (Ni-NTA)) MAQGTLIRVTPEQPTHAVCVLGTLTQLDICSSAPEDCTSFSINASPGVVVDIAHGPPAKKKSTGSSTWPLDPGVEVTLTMKVASGSTGDQKVQISYYGPKTPPVKALLYLTGVEISLCADITRTGKVKPTRAVKDQRTWTWGPCGQGAILLVNCDRDNLESSAMDCEDDEVLDSEDLQDMSLMTLSTKTPKDFFTNHTLVLHVARSEMDKVRVFQATRGKLSSKCSVVLGPKWPSHYLMVPGGKHNMDFYVEALAFPDTDFPGLITLTISLLDTSNLELPEAVVFQDSVVFRVAPWIMTPNTQPPQEVYACSIFENEDFLKSVTTLAMKAKCKLTICPEEENMDDQWMADEMAIGYIQAPHKTLPVVFDSPRNRGLKEFPIKRVMGPDFGYVTRGPQTGGISGLDSFGNLAVSPPVTVRGKEYPLGRILFGDSCYPSNDSRQMHQALQDFLSAQQVQAPVKLYSDWLSVGHVDEFLSFVPAPDRKGFRLLLASPRSCYKLFQEQQNEGHGEALLFEGIKKKKQQKIKNILSNKTLREHNSFVERCIDWNRELLKRELGLAESDIIDIPQLFKLKEFSKAEAFFPNMVNMLVLGKHLGIPKPFGPVINGRCCLEEKVCSLLEPLGLQCTFINDFFTYHIRHGEVHCGTNVRRKPFSFKWWNMVP | 160 ± 1 |
| PAD4 Ca3_site mutant (N153A/D155A/D157A/D165A/D176A/D179A) (enzyme, human, UniProt Q9UM07 1-663, looked up, human peptidylarginine deiminase 4 (PAD4), cDNA cloned into pQE30; source: E. coli JM109, purified (Ni-NTA)) MAQGTLIRVTPEQPTHAVCVLGTLTQLDICSSAPEDCTSFSINASPGVVVDIAHGPPAKKKSTGSSTWPLDPGVEVTLTMKVASGSTGDQKVQISYYGPKTPPVKALLYLTGVEISLCADITRTGKVKPTRAVKDQRTWTWGPCGQGAILLVACARANLESSAMACEDDEVLDSEALQAMSLMTLSTKTPKDFFTNHTLVLHVARSEMDKVRVFQATRGKLSSKCSVVLGPKWPSHYLMVPGGKHNMDFYVEALAFPDTDFPGLITLTISLLDTSNLELPEAVVFQDSVVFRVAPWIMTPNTQPPQEVYACSIFENEDFLKSVTTLAMKAKCKLTICPEEENMDDQWMQDEMEIGYIQAPHKTLPVVFDSPRNRGLKEFPIKRVMGPDFGYVTRGPQTGGISGLDSFGNLEVSPPVTVRGKEYPLGRILFGDSCYPSNDSRQMHQALQDFLSAQQVQAPVKLYSDWLSVGHVDEFLSFVPAPDRKGFRLLLASPRSCYKLFQEQQNEGHGEALLFEGIKKKKQQKIKNILSNKTLREHNSFVERCIDWNRELLKRELGLAESDIIDIPQLFKLKEFSKAEAFFPNMVNMLVLGKHLGIPKPFGPVINGRCCLEEKVCSLLEPLGLQCTFINDFFTYHIRHGEVHCGTNVRRKPFSFKWWNMVP | 160 ± 1 |
| PAD4 Ca4_site mutant (D155A/D157A/D179A/D388A) (enzyme, human, UniProt Q9UM07 1-663, looked up, human peptidylarginine deiminase 4 (PAD4), cDNA cloned into pQE30; source: E. coli JM109, purified (Ni-NTA)) MAQGTLIRVTPEQPTHAVCVLGTLTQLDICSSAPEDCTSFSINASPGVVVDIAHGPPAKKKSTGSSTWPLDPGVEVTLTMKVASGSTGDQKVQISYYGPKTPPVKALLYLTGVEISLCADITRTGKVKPTRAVKDQRTWTWGPCGQGAILLVNCARANLESSAMDCEDDEVLDSEDLQAMSLMTLSTKTPKDFFTNHTLVLHVARSEMDKVRVFQATRGKLSSKCSVVLGPKWPSHYLMVPGGKHNMDFYVEALAFPDTDFPGLITLTISLLDTSNLELPEAVVFQDSVVFRVAPWIMTPNTQPPQEVYACSIFENEDFLKSVTTLAMKAKCKLTICPEEENMDDQWMQDEMEIGYIQAPHKTLPVVFDSPRNRGLKEFPIKRVMGPAFGYVTRGPQTGGISGLDSFGNLEVSPPVTVRGKEYPLGRILFGDSCYPSNDSRQMHQALQDFLSAQQVQAPVKLYSDWLSVGHVDEFLSFVPAPDRKGFRLLLASPRSCYKLFQEQQNEGHGEALLFEGIKKKKQQKIKNILSNKTLREHNSFVERCIDWNRELLKRELGLAESDIIDIPQLFKLKEFSKAEAFFPNMVNMLVLGKHLGIPKPFGPVINGRCCLEEKVCSLLEPLGLQCTFINDFFTYHIRHGEVHCGTNVRRKPFSFKWWNMVP | 410 ± 4 |
| PAD4 Ca2_site mutant (E351A/D369A/N373A) (enzyme, human, UniProt Q9UM07 1-663, looked up, human peptidylarginine deiminase 4 (PAD4), cDNA cloned into pQE30; source: E. coli JM109, purified (Ni-NTA)) MAQGTLIRVTPEQPTHAVCVLGTLTQLDICSSAPEDCTSFSINASPGVVVDIAHGPPAKKKSTGSSTWPLDPGVEVTLTMKVASGSTGDQKVQISYYGPKTPPVKALLYLTGVEISLCADITRTGKVKPTRAVKDQRTWTWGPCGQGAILLVNCDRDNLESSAMDCEDDEVLDSEDLQDMSLMTLSTKTPKDFFTNHTLVLHVARSEMDKVRVFQATRGKLSSKCSVVLGPKWPSHYLMVPGGKHNMDFYVEALAFPDTDFPGLITLTISLLDTSNLELPEAVVFQDSVVFRVAPWIMTPNTQPPQEVYACSIFENEDFLKSVTTLAMKAKCKLTICPEEENMDDQWMQDAMEIGYIQAPHKTLPVVFASPRARGLKEFPIKRVMGPDFGYVTRGPQTGGISGLDSFGNLEVSPPVTVRGKEYPLGRILFGDSCYPSNDSRQMHQALQDFLSAQQVQAPVKLYSDWLSVGHVDEFLSFVPAPDRKGFRLLLASPRSCYKLFQEQQNEGHGEALLFEGIKKKKQQKIKNILSNKTLREHNSFVERCIDWNRELLKRELGLAESDIIDIPQLFKLKEFSKAEAFFPNMVNMLVLGKHLGIPKPFGPVINGRCCLEEKVCSLLEPLGLQCTFINDFFTYHIRHGEVHCGTNVRRKPFSFKWWNMVP | 150 ± 1 |
